# Measured values as given in the DeepSol protein solubility set.
# Assay: soluble on expression in E. coli; label from the status in PepcDB or PDB records
row,Sequence,soluble on expression in E. coli
1,MTKHPPNRRGISFEVGAQLEARDRLKNWYPAHIEDIDYEEGKVLIHFKRWNHRYDEWFCWDSPYLRPLEKIQLRKEGLHEEDGSSEFQINEQVLACWSDCRFYPAKVTAVNKDGTYTVKFYDGVVQTVKHIHVKAFSKDQNIVGNARPKETDHKSLSSSPDKREKFKEQRKATVNVKKDKEDKPLKTEKRPKQPDKEGKLICSEKGKVSEKSLPKNEKEDKENISENDREYSGDAQKKTSQTPFHSSYCCGFKLSNFATQLEHHHHHH,soluble
2,MKQRPIPRPQTDTTAALQALADALACLRNSATVLAFLRDLCTPAELEALADRWRVVPLLLQGRPYRDIHDHTGISVTTIGRVARCLEHGTGGYAAVLQAQAMPPASSIEKPQ,not soluble
3,IHFTTEVITSRIEPANRYVAEKLRITPGQDILYLERLRSIGDEKAMLIENRINIELCPGIVEIDFNQHNLFPTIESLSKRKIRYSESRYAARLIGNERGHFLDISEDAPVLHLEQLVFFSRELPVEFGNVWLKG,not soluble
4,MGSDKIHHHHHHMLDQNQTPLIDGIKACIARPHAAFYTPGHKRGRGIAQPLADLLGEAVFGADLTELANLDNLSAPQGVIQEAQRLAAAAFGAAQTWFLVNGSTCGVEAAIMATCRPGDKIILPRNVHSSAIAGLILSGAIPIFIHPEYDQVLDIAHSMTPEAVKAALQQHPDAKAVLAVYPTYYGVCGDLEAIAQITHQYNIPLLVDEAHGAHFTFHPELPTPALAAGADLTVQSIHKVLGAMTQASMLHIQGDRINAVRVSQALQLLQSTSPSYVLLASLDAARQQMALCGKQLMSRTLQLANEARERISQIPGLSVLQPPTMTPSSGFTTLDKTRLTITVSGLGLTGFAAEEILDEQLGVTAEFATFKHLTFIISLGNTTADIEQLVQGFTTLAETTPPAKALVNPRVNSNLEYFSEISPRDAFFADSETLSIEQARDRICAEIICPYPPGIPVIMPGEVITKPAIEYLQHIQSSGGFITGCADTSLSTLKVLVIGH,not soluble
5,MGSDKIHHHHHHMSRTVVISQPTYLPWLGYFELIAKSDVFVFLDNVQCVKQSWHNRNRLKGNDDQLIWLTVPVKAHPLDTPLSKIQILNNPSVWRRKHLGTIQTCLGSAVYFHTIFPFIQEFINYEYEYLVDLNISLIKLFADLLGLSPNFVKASDLNPQGRRTEMLVNLCQQLDADYYYSPMGSKVYIEEEKHLFIEEDIKLNYQIWEHPCYSQRGKIFVSHLSILDTLMNIGLEATRSLIIPNKLKDI,not soluble
6,MGSSHHHHHHSSGLVPRGSHMKLQFNLKAYFKTSADPTPAKDAIAALFEEANSTLLTRGAPEGQGAKVTEWKLGEDRIELTLQSGRYVRVHDAIFRLRKQLAEALGKKYKIGIRGIEVESFIIKVPADHELRMLKVPYIKSMENIEGGIQLELEVGEAEMKNRVPDRILTLLEEKIEAAQYGAKAEHWNLLWQREPMEHPFKEDPTQAMMKEGWLKRGSSRGQWIHGPQSARIFRTFEKIVLEELLEPLGYREMIFPKLVTWEVWMKSGHAKGVYPEIYYVCPPQTRDPDYWEEVADYYKVTHEVPTKLIKEKIAEPIGGMCYAQCPPFWMYVAGETLPNEEIPVKVFDRSGTSHRYESGGIHGIERVDEFHRIEIVWIGTKEEVLKCAEELHDRYMHIFNDILDIEWRKARVTPWFMAQEGLLGLAEENTVGTTDYEACLPYRGPDGEWLEFQNVSINGDKYPKGFNVKLQSGDELWSGCSGVGLERWAAVFLAQKGLDPANWPEEFRNRVGEMPKGIRFL,soluble
7,MEFLKLSEGKTKEVYAYDDSHVLLKFKDSITAGDGARKDILEGKGILNAQTSAFLFRLLESKGIETHYIGMFDERTMIAKKLKMIPVEVVLRNIATGSIVKRLPIKEGEVFEPPIIEFFLKDDERHDPMLNYYHMEYLKLMTRKEAEKIEEIMLKVNEILYPFFRSKKLLLYDFKLEFGRVNDKLIIGDELTLDSMRIREEGSGRILDKDLYRKGADLETVKKAYEEFFKRISE,soluble
8,MSSVELPQVMDDNLISRRKKIMQSIEDIRGKKAEIAQALRELGVGKPQENESVKEDMKLLLAAFDSISAQEAQYMDILKTIVGIHEQATLDIAKDFEKKIEDDAQKLKEQKEKQEEDATEEDENAEKTPEEQANSEVIAELQEALLELKQVSEAAVAASELNEKLVERLQLTKRKKSAMMEVRAKKAKDLDDVATKVRAEVMERINKMAALKKTTTKQEKELKELQKQCLQLGLQLGTDENREIDPAAEEALLDDNQRVPVIVETQEKPDLNDEEKEKRREEIRENIKKEMEKKEQVNTLIREKLASMNARRKRLQEIRKMLEKQEHEKEKLDAAISNSAVAVQNDGEGIALTPETPRPSQEDEAEAPAAAETTVVSAPVAASEDIDEEEDGEVTEKSLDDILENARANLSNLTAMRERLEHIKETGGADLNEDDLTLLERLDNVALEEDEKLTPTP,soluble
9,MSLKDSGILFVDDDILFLALLRECFMQRGIVIQCAENGEDALQMIQQRPFALLLTDLQMPGMDGLELAGKARKLMPDLPIVLCTGAVTPEVCALAEEIGIAQVVRKPIRFSELFAIVGNIVSLQQTEGHHHHHH,soluble
10,FAKLVRPPVQIYGIEGRYATALYSAASKQNKLEQVEKELLRVGQILKEPKMAASLLNPYVKRSVKVKSLSDMTAKEKFSPLTSNLINLLAENGRLTNTPAVISAFSTMMSVHRGEVPCTVTTASALDETTLTELKTVLKSFLSKGQVLKLEVKIDPSIMGGMIVRIGEKYVDMSAKTKIQKLSRAMREIL,soluble
11,MNQQDIEQVVKAVLLKMKDSSQPASTVHEMGVFASLDDAVAAAKRAQQGLKSVAMRQLAIHAIREAGEKHARELAELAVSETGMGRVDDKFAKNVAQARGTPGVECLSPQVLTGDNGLTLIENAPWGVVASVTPSTNPAATVINNAISLIAAGNSVVFAPHPAAKKVSQRAITLLNQAVVAAGGPENLLVTVANPDIETAQRLFKYPGIGLLVVTGGEAVVDAARKHTNKRLIAAGAGNPPVVVDETADLPRAAQSIVKGASFDNNIICADEKVLIVVDSVADELMRLMEGQHAVKLTAAQAEQLQPVLLKNIDERGKGTVSRDWVGRDAGKIAAAIGLNVPDQTRLLFVETPANHPFAVTEMMMPVLPVVRVANVEEAIALAVQLEGGCHHTAAMHSRNIDNMNQMANAIDTSIFVKNGPCIAGLGLGGEGWTTMTITTPTGEGVTSARTFVRLRRCVLVDAFRIV,not soluble
12,GSSHHHHHHSSGLVPRGSHMQTTNAVDLGNPDLYTTLERHARWRELAAEDAMVWSDPGSSPSGFWSVFSHRACAAVLAPSAPLTSEYGMMIGFDRDHPDNSGGRMMVVSEHEQHRKLRKLVGPLLSRAAARKLAERVRIEVGDVLGRVLDGEVCDAATAIGPRIPAAVVCEILGVPAEDEDMLIDLTNHAFGGEDELFDGMTPRQAHTEILVYFDELITARRKEPGDDLVSTLVTDDDLTIDDVLLNCDNVLIGGNETTRHAITGAVHALATVPGLLTALRDGSADVDTVVEEVLRWTSPAMHVLRVTTADVTINGRDLPSGTPVVAWLPAANRDPAEFDDPDTFLPGRKPNRHITFGHGMHHCLGSALARIELSVVLRVLAERVSRVDLEREPAWLRAIVVQGYRELPVRFTGR,soluble
13,MLSRFSGKVALVTGSSNGIGRAAAVLFAKDGAKVTVTGRNAERLEETRQEILKSGVPESHVLSVATDLAAEKGQDELVNSTIQKFGRLDILVNNAGAAFNDDQGRVGVDQDVSVYDKIMQINMRSVVTLTQKAKEHLVKAKGEIVNVSSIAGTAHAQPGVMYYAMSKSALDQFTRCAAIDLIQYGVRVNSVSPGGVTTGFGEAMGMPSGAFEEMMKFMESRKECIPSGAVAKPIDIANIIAFLADRKLSSYIIGQSIVADGGSTLVLGMNAHNWADLMKQS,not soluble
14,MDQGPINRPHFFFTTAPMPCPYLEGHLERKMVTDLTGPEAERLHESLSRAGFRRSHTIAYAPVCPGCTACVPVRIRARAFVKNKSFRRIVRANAGVTAEYVPARATVEQFHLFSQYQQARHGESDMALMGFFDYRSMVEDSPISTSIAEFREAGGELVAACLIDHLSDGLSAVYSFFNTTLPQSRGLGTWMILWMVDETVRRDLDHVYLGYWIAESSKMAYKERFQPLEVFGRRGWIAFDERGRPGLEHHHHHH,not soluble
15,MGSDKIHHHHHHMNLGNPIAKGNTAEIYLYDNKIMKLFKDYLPNTESMNEAKKQKYAYSCGLPVPNVFEVTKIQNRQAIIMEYVKGDSIGDLLLNNLNEAEYYINICVNEQKKIHAIHVNTDEMEAMGERLERQIKSVHKLDEKQKESILNKLHSIKLDPRLCHGDFHPFNLILSEKNVSIIDWIDASSGDIRADLFRTYLLYSQSSVELAEKYLHIYCRNTGLSRDEIFQWAPIIIAARISENVTATNIEYLNDLVAQYCN,not soluble
